Blank lines part the entries; values can stand above or below the binder they belong to. Numbered stars: 1 amine (or outer) side, 2 acyl side, 3 side chain; on linkers, the order of the positions; unused ones are H or OH. Bridge positions count the residues as written; N and C are the ends. Square brackets hold non-standard residues; d marks the D form. Primed or numbered codes have the meaning given here. 1S4RAcpc = (1S,4R)-4-Aminocyclopent-2-ene-1-carboxylic acid, O=C([C@@H]1C=C[C@H](N[*:1])C1)[*:2]; 4Pal2F = (S)-2-Amino-3-(3-fluoropyridin-4-yl)propanoic acid, O=C([C@H](Cc1ccncc1F)N[*:1])[*:2]; bhcLeu = (1R,3S)-3-aminocyclopentane-1-carboxylic acid, O=C([C@@H]1CC[C@H](N[*:1])C1)[*:2]; hSOMe = (S)-2-Amino-4-methoxybutanoic acid, COCC[C@H](N[*:1])C(=O)[*:2]; Trp(1-CH2CO) = O=C([C@H](Cc1cn(CC(=O)[*:3])c2ccccc12)N[*:1])[*:2]; Ala(2-carboxypyrimidin-5-yl) = N[C@@H](Cc1cnc(C(=O)O)nc1)C(=O)O; Trp(βS-Me,7-OMe) = COc1cccc2c([C@H](C)[C@H](N)C(=O)O)c[nH]c12; Phe(3R-OH) = O=C([C@@H](N[*:1])[C@H](O[*:3])c1ccccc1)[*:2]; Ala(1-bicyclo(1.1.1)pentyl) = N[C@@H](CC12CC(C1)C2)C(=O)O; NEtdA = N-ethyl-D-alanine, CCN([C@H](C)C(=O)[*:2])[*:1]; Phe(4-SO3H) = N[C@@H](Cc1ccc(S(=O)(=O)O)cc1)C(=O)O; Trp(7-Cl) = N[C@@H](Cc1c[nH]c2c(Cl)cccc12)C(=O)O; Phe(4-CONH2) = NC(=O)c1ccc(C[C@H](N)C(=O)O)cc1; Phe(4-COOH) = N[C@@H](Cc1ccc(C(=O)O)cc1)C(=O)O; Trp(7-aza) = N[C@@H](Cc1c[nH]c2ncccc12)C(=O)O; Pip(5R-OH) = O=C(O)[C@@H]1CC[C@@H](O)CN1; Pip(4-aza) = O=C(O)[C@@H]1CNCCN1; 4Pal = N[C@@H](Cc1ccncc1)C(=O)O; NMeE = CN[C@@H](CCC(=O)O)C(=O)O; dHyp = O=C(O)[C@H]1C[C@H](O)CN1; αMeS = C[C@](N)(CO)C(=O)O; Nle = CCCC[C@H](N)C(=O)O; Pip′ = not defined here; Sar = CNCC(=O)O
Biological target: T1, TNFR1 on THP-1 Lucia NF-κB cells (UniProt P19438 30-455, limits assumed)
T1 sequence (looked up): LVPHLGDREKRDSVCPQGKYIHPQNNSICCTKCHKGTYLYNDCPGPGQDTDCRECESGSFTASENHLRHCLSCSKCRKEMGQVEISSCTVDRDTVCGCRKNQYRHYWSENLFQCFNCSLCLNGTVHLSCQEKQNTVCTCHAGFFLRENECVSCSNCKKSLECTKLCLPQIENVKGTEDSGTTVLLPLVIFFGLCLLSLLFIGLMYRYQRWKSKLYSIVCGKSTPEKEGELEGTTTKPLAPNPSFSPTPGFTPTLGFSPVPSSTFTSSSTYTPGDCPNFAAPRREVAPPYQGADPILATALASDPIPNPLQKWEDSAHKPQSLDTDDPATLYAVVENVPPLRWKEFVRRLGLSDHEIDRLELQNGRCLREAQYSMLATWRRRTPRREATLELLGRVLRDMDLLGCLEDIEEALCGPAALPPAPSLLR
Experiment: cell-based or functional assay

B4: SEQ ID NO. 198 (peptide)
peptide: cyclo([bhcLeu][Nle][4Pal][Pip(4-aza)]W[NMeE]N[4Pal2F][Trp(7-Cl)][αMeS][Phe(4-COOH)]Y[Sar][Trp(βS-Me,7-OMe)])
SMILES: CCCC[C@@H]1NC(=O)[C@@H]2CC[C@@H](C2)NC(=O)[C@H]([C@@H](C)c2c[nH]c3c(OC)cccc23)NC(=O)CN(C)C(=O)[C@H](Cc2ccc(O)cc2)NC(=O)[C@H](Cc2ccc(C(=O)O)cc2)NC(=O)[C@](C)(CO)NC(=O)[C@H](Cc2c[nH]c3c(Cl)cccc23)NC(=O)[C@H](Cc2ccncc2F)NC(=O)[C@H](CC(N)=O)NC(=O)[C@H](CCC(=O)O)N(C)C(=O)[C@H](Cc2c[nH]c3ccccc23)NC(=O)[C@@H]2CNCCN2C(=O)[C@H](Cc2ccncc2)NC1=O
THP-1 IC50: 0.8 nM

B5: SEQ ID NO. 181 (peptide)
peptide: cyclo([bhcLeu][Nle][4Pal][Pip(4-aza)]W[NMeE][hSOMe][4Pal][Trp(7-Cl)][αMeS][Phe(4-COOH)]Y[Sar][Trp(βS-Me,7-OMe)])
SMILES: CCCC[C@@H]1NC(=O)[C@@H]2CC[C@@H](C2)NC(=O)[C@H]([C@@H](C)c2c[nH]c3c(OC)cccc23)NC(=O)CN(C)C(=O)[C@H](Cc2ccc(O)cc2)NC(=O)[C@H](Cc2ccc(C(=O)O)cc2)NC(=O)[C@](C)(CO)NC(=O)[C@H](Cc2c[nH]c3c(Cl)cccc23)NC(=O)[C@H](Cc2ccncc2)NC(=O)[C@H](CCOC)NC(=O)[C@H](CCC(=O)O)N(C)C(=O)[C@H](Cc2c[nH]c3ccccc23)NC(=O)[C@@H]2CNCCN2C(=O)[C@H](Cc2ccncc2)NC1=O
THP-1 IC50: 1.2 nM

B8: SEQ ID NO. 190 (peptide)
peptide: cyclo([bhcLeu][Ala(1-bicyclo(1.1.1)pentyl)][4Pal][Pip(4-aza)]W[NMeE]N[4Pal][Trp(7-Cl)][αMeS][Phe(4-COOH)]Y[Sar][Trp(βS-Me,7-OMe)])
SMILES: COc1cccc2c([C@H](C)[C@@H]3NC(=O)CN(C)C(=O)[C@H](Cc4ccc(O)cc4)NC(=O)[C@H](Cc4ccc(C(=O)O)cc4)NC(=O)[C@](C)(CO)NC(=O)[C@H](Cc4c[nH]c5c(Cl)cccc45)NC(=O)[C@H](Cc4ccncc4)NC(=O)[C@H](CC(N)=O)NC(=O)[C@H](CCC(=O)O)N(C)C(=O)[C@H](Cc4c[nH]c5ccccc45)NC(=O)[C@@H]4CNCCN4C(=O)[C@H](Cc4ccncc4)NC(=O)[C@H](CC45CC(C4)C5)NC(=O)[C@@H]4CC[C@@H](C4)NC3=O)c[nH]c12
THP-1 IC50: 1.6 nM

B9: SEQ ID NO. 191 (peptide)
peptide: cyclo([bhcLeu][Nle][4Pal][Pip(5R-OH)]W[dHyp]N[Phe(4-COOH)][Trp(7-Cl)][αMeS][Phe(4-CONH2)][Ala(2-carboxypyrimidin-5-yl)][Sar][Trp(βS-Me,7-OMe)])
SMILES: CCCC[C@@H]1NC(=O)[C@@H]2CC[C@@H](C2)NC(=O)[C@H]([C@@H](C)c2c[nH]c3c(OC)cccc23)NC(=O)CN(C)C(=O)[C@H](Cc2cnc(C(=O)O)nc2)NC(=O)[C@H](Cc2ccc(C(N)=O)cc2)NC(=O)[C@](C)(CO)NC(=O)[C@H](Cc2c[nH]c3c(Cl)cccc23)NC(=O)[C@H](Cc2ccc(C(=O)O)cc2)NC(=O)[C@H](CC(N)=O)NC(=O)[C@H]2C[C@H](O)CN2C(=O)[C@H](Cc2c[nH]c3ccccc23)NC(=O)[C@@H]2CC[C@@H](O)CN2C(=O)[C@H](Cc2ccncc2)NC1=O
THP-1 IC50: 1.6 nM

B10: SEQ ID NO. 186 (peptide)
peptide: {CH2CO}-[Nle][4Pal][Pip(5R-OH)]W[NEtdA]N[4Pal][Trp(7-Cl)][αMeS][Phe(4-CONH2)]Y[Sar][Trp(βS-Me,7-OMe)]C-NH2
modifications: thioether N-14
SMILES: CCCC[C@@H]1NC(=O)CSC[C@@H](C(N)=O)NC(=O)[C@H]([C@@H](C)c2c[nH]c3c(OC)cccc23)NC(=O)CN(C)C(=O)[C@H](Cc2ccc(O)cc2)NC(=O)[C@H](Cc2ccc(C(N)=O)cc2)NC(=O)[C@](C)(CO)NC(=O)[C@H](Cc2c[nH]c3c(Cl)cccc23)NC(=O)[C@H](Cc2ccncc2)NC(=O)[C@H](CC(N)=O)NC(=O)[C@@H](C)N(CC)C(=O)[C@H](Cc2c[nH]c3ccccc23)NC(=O)[C@@H]2CC[C@@H](O)CN2C(=O)[C@H](Cc2ccncc2)NC1=O
THP-1 IC50: 1.9 nM

Binder: {CH2CO}-[Nle][4Pal][Pip′]W[NMeE]N[4Pal][Trp(7-Cl)][αMeS][Phe(4-COOH)]Y[Sar][SbMeW7Me]C-NH2 (thioether N-14) [SEQ ID NO. 208]
THP-1 IC50: 4 nM

B11: SEQ ID NO. 199 (peptide)
peptide: cyclo([bhcLeu][Nle][4Pal][Pip(4-aza)]W[NMeE]N[4Pal][Trp(7-Cl)][αMeS][Phe(4-SO3H)]Y[Sar][Trp(βS-Me,7-OMe)])
SMILES: CCCC[C@@H]1NC(=O)[C@@H]2CC[C@@H](C2)NC(=O)[C@H]([C@@H](C)c2c[nH]c3c(OC)cccc23)NC(=O)CN(C)C(=O)[C@H](Cc2ccc(O)cc2)NC(=O)[C@H](Cc2ccc(S(=O)(=O)O)cc2)NC(=O)[C@](C)(CO)NC(=O)[C@H](Cc2c[nH]c3c(Cl)cccc23)NC(=O)[C@H](Cc2ccncc2)NC(=O)[C@H](CC(N)=O)NC(=O)[C@H](CCC(=O)O)N(C)C(=O)[C@H](Cc2c[nH]c3ccccc23)NC(=O)[C@@H]2CNCCN2C(=O)[C@H](Cc2ccncc2)NC1=O
THP-1 IC50: 1 nM

The next lines start with the values.

THP-1 IC50: 0.9 nM
B1: SEQ ID NO. 185 (peptide)
peptide: {CH2CO}-[Nle][4Pal][Pip(5R-OH)]W[dHyp]N[Phe(4-COOH)][Trp(7-Cl)][αMeS][Phe(4-CONH2)]Y[Sar][Trp(βS-Me,7-OMe)]C-NH2
modifications: thioether N-14
SMILES: CCCC[C@@H]1NC(=O)CSC[C@@H](C(N)=O)NC(=O)[C@H]([C@@H](C)c2c[nH]c3c(OC)cccc23)NC(=O)CN(C)C(=O)[C@H](Cc2ccc(O)cc2)NC(=O)[C@H](Cc2ccc(C(N)=O)cc2)NC(=O)[C@](C)(CO)NC(=O)[C@H](Cc2c[nH]c3c(Cl)cccc23)NC(=O)[C@H](Cc2ccc(C(=O)O)cc2)NC(=O)[C@H](CC(N)=O)NC(=O)[C@H]2C[C@H](O)CN2C(=O)[C@H](Cc2c[nH]c3ccccc23)NC(=O)[C@@H]2CC[C@@H](O)CN2C(=O)[C@H](Cc2ccncc2)NC1=O

THP-1 IC50: 3.3 nM
B2: SEQ ID NO. 211 (peptide)
peptide: {CH2CO}-[Nle][4Pal][Phe(3R-OH)][Trp(7-aza)][NMeE]N[4Pal][Trp(7-Cl)][αMeS][Phe(4-COOH)]Y[Sar][Trp(βS-Me,7-OMe)]C-NH2
modifications: thioether N-14
SMILES: CCCC[C@@H]1NC(=O)CSC[C@@H](C(N)=O)NC(=O)[C@H]([C@@H](C)c2c[nH]c3c(OC)cccc23)NC(=O)CN(C)C(=O)[C@H](Cc2ccc(O)cc2)NC(=O)[C@H](Cc2ccc(C(=O)O)cc2)NC(=O)[C@](C)(CO)NC(=O)[C@H](Cc2c[nH]c3c(Cl)cccc23)NC(=O)[C@H](Cc2ccncc2)NC(=O)[C@H](CC(N)=O)NC(=O)[C@H](CCC(=O)O)N(C)C(=O)[C@H](Cc2c[nH]c3ncccc23)NC(=O)[C@H]([C@H](O)c2ccccc2)NC(=O)[C@H](Cc2ccncc2)NC1=O

THP-1 IC50: 0.7 nM
B3: SEQ ID NO. 197 (peptide)
peptide: cyclo([bhcLeu][Nle][4Pal][Pip(4-aza)][Trp(1-CH2CO)][NMeE]N[4Pal][Trp(7-Cl)][αMeS][Phe(4-COOH)]Y[Sar][Trp(βS-Me,7-OMe)])
SMILES: CCCC[C@@H]1NC(=O)[C@@H]2CC[C@@H](C2)NC(=O)[C@H]([C@@H](C)c2c[nH]c3c(OC)cccc23)NC(=O)CN(C)C(=O)[C@H](Cc2ccc(O)cc2)NC(=O)[C@H](Cc2ccc(C(=O)O)cc2)NC(=O)[C@](C)(CO)NC(=O)[C@H](Cc2c[nH]c3c(Cl)cccc23)NC(=O)[C@H](Cc2ccncc2)NC(=O)[C@H](CC(N)=O)NC(=O)[C@H](CCC(=O)O)N(C)C(=O)[C@H](Cc2cn(CC(=O)O)c3ccccc23)NC(=O)[C@@H]2CNCCN2C(=O)[C@H](Cc2ccncc2)NC1=O

THP-1 IC50: 0.9 nM
B6: SEQ ID NO. 182 (peptide)
peptide: cyclo([1S4RAcpc][Nle][4Pal][Pip(4-aza)]W[NMeE]N[4Pal][Trp(7-Cl)][αMeS][Phe(4-COOH)]Y[Sar][Trp(βS-Me,7-OMe)])
SMILES: CCCC[C@@H]1NC(=O)[C@@H]2C=C[C@@H](C2)NC(=O)[C@H]([C@@H](C)c2c[nH]c3c(OC)cccc23)NC(=O)CN(C)C(=O)[C@H](Cc2ccc(O)cc2)NC(=O)[C@H](Cc2ccc(C(=O)O)cc2)NC(=O)[C@](C)(CO)NC(=O)[C@H](Cc2c[nH]c3c(Cl)cccc23)NC(=O)[C@H](Cc2ccncc2)NC(=O)[C@H](CC(N)=O)NC(=O)[C@H](CCC(=O)O)N(C)C(=O)[C@H](Cc2c[nH]c3ccccc23)NC(=O)[C@@H]2CNCCN2C(=O)[C@H](Cc2ccncc2)NC1=O

THP-1 IC50: 0.9 nM
B7: SEQ ID NO. 201 (peptide)
peptide: cyclo([bhcLeu][Nle][4Pal2F][Pip(4-aza)]W[NMeE]N[4Pal][Trp(7-Cl)][αMeS][Phe(4-COOH)]Y[Sar][Trp(βS-Me,7-OMe)])
SMILES: CCCC[C@@H]1NC(=O)[C@@H]2CC[C@@H](C2)NC(=O)[C@H]([C@@H](C)c2c[nH]c3c(OC)cccc23)NC(=O)CN(C)C(=O)[C@H](Cc2ccc(O)cc2)NC(=O)[C@H](Cc2ccc(C(=O)O)cc2)NC(=O)[C@](C)(CO)NC(=O)[C@H](Cc2c[nH]c3c(Cl)cccc23)NC(=O)[C@H](Cc2ccncc2)NC(=O)[C@H](CC(N)=O)NC(=O)[C@H](CCC(=O)O)N(C)C(=O)[C@H](Cc2c[nH]c3ccccc23)NC(=O)[C@@H]2CNCCN2C(=O)[C@H](Cc2ccncc2F)NC1=O
